From the DeepSol protein solubility set

experiment: soluble on expression in E. coli; label from the status in PepcDB or PDB records

Row | Sequence | soluble on expression in E. coli
1 | GMNSNFSYPALGVDGISSQISPIRDVWSTNLQQEMNLIMSLIERYPVVSMDTEFPGVVARPLGVFKSSDDYHYQTLRANVDSLKIIQIGLALSDEEGNAPVEACTWQFNFTFNLQDDMYAPESIELLTKSGIDFKKHQEVGIEPADFAELLIGSGLVLQEEVTWITFHSGYDFAYLLKAMTQIPLPAEYEEFYKILCIYFPKNYDIKYIMKSVLNNSKGLQDIADDLQIHRIGPQHQAGSDALLTARIFFEIRSRYFDGSIDSRMLNQLYGLGSTGSVLWHNNSSTPQIQFRDLPGAHPSPTPSNAGIPTTLTNTSSAPNFANSTFRFPPRVV | soluble
2 | MTKVERLLINYKTLEEFKKFKEYGIQELSMLEELQDNIIENDSTSPFYGIYFGDKLVARMSLYQVNGKSNPYFDNRQDYLELWKLEVLPGYQNRGYGRALVEFAKSFKMPIRTNPRMKSAEFWNKMNFKTVKYDMARDKGEDPLIWHPDMDREMTPGESA | soluble
3 | MSLYDNDLWFATINLPYRQKLELLRIYKTSDEILYNFKNSELIQKYKFDIEKINYIKDEMKKSGMKIVFWNDDDYPKVLKNYDDMPYGLFYMGNIKKLNELNYNVAIVGSRRCTQYGKDITTIISREISINGIGIISGMARGIDTYAHKICLENNGYTCAVLGCGADVIYPKENKNLYCQIIRNGCIISQYKPNTKPLPYNFPIRNKIISGLSNLVLVTEADIKSGSIITASSALEQGKDVGAVPGSVFSKMSRGTNKLIQDGAHVIKDIDDVFGILNFQKINFKKIRNNSSYSSMPENQRQIYDLVSDKPIHVDDIKRCLNIDIQELYELLFEMQLKNKILCLSGSYYVRVNDCLEGHHHHHH | soluble
4 | MFNEKDQLAVDTLRALSIDTIEKANSGHPGLPMGAAPMAYTLWTRHLNFNPQSKDYFNRDRFVLSAGHGSALLYSLLHVSGSLELEELKQFRQWGSKTPGHPEYRHTDGVEVTTGPLGQGFAMSVGLALAEDHLAGKFNKEGYNVVDHYTYVLASDGDLMEGISHEAASFAGHNKLSKLVVLYDSNDISLDGELNKAFSENTKARFEAYGWNYLLVKDGNDLEEIDKAITTAKSQEGPTIIEVKTTIGFGSPNKAGTNGVHGAPLGEVERKLTFENYGLDPEKRFNVSEEVYEIFQNTMLKRANEDESQWNSLLEKYAETYPELAEEFKLAISGKLPKNYKDELPRFELGHNGASRADSGTVIQAISKTVPSFFGGSADLAGSNKSNVNDATDYSSETPEGKNVWFGVREFAMGAAVNGMAAHGGLHPYGATFFVFSDYLKPALRLSSIMGLNATFIFTHDSIAVGEDGPTHEPIEQLAGLRAIPNMNVIRPADGNETRVAWEVALESESTPTSLVLTRQNLPVLDVPEDVVEEGVRKGAYTVYGSEETPEFLLLASGSEVSLAVEAAKDLEKQGKSVRVVSMPNWNAFEQQSEEYKESVIPSSVTKRVAIEMASPLGWHKYVGTAGKVIAIDGFGASAPGDLVVEKYGFTKENILNQVMSL | not soluble
5 | MGSDKIHHHHHHMSASIPETMKAVVIENGKAVVKQDIPIPELEEGFVLIKTVAVAGNPTDWKHIDFKIGPQGALLGCDAAGQIVKLGPNVDAARFAIGDYIYGVIHGASVRFPSNGAFAEYSAISSETAYKPAREFRLCGKDKLPEGPVKSLEGAVSLPVSLTTAGMILTHSFGLDMTWKPSKAQRDQPILFWGGATAVGQMLIQLAKKLNGFSKIIVVASRKHEKLLKEYGADELFDYHDADVIEQIKKKYNNIPYLVDCVSNTETIQQVYKCAADDLDATVVQLTVLTEKDIKEEDRRQNVSIEGTLLYLIGGNDVPFGTFTLPADPEYKEAAIKFIKFINPKINDGEIHHIPVKVYKNGLDDIPQL | not soluble
6 | MSLIYTGRPMLGTERIRGLTIKIFLPLMELLGRVMGVGREEVRHSFIKVNNELVRSRGGRYTPDELLILVPHCLQSSRCEIRLTYDMNHCKRCGKCPIRDLLALRDRYGVSLAIATGGTIARRIVVQTRPKLIIAVACERDLASGIQDTHPIPVYGVLNERPNGPCLDTLVPMQRLEAALRHFLRDVPVSAGGAPDESRRGRDAAAAFGKAQGPECRVTQGSSQRRGSDGEGHHHHHH | not soluble
7 | MPEYSSVTGLEGVKFAPLKKENGFYVATKIIDYPYAINAKVNTETSTEKQYADNKLVDMAVTTGSTKLELEMRDLPMEILEELFGIEETDGIYMFKKNVIAPWVAMSFYGPKANGKNRHVGLVKGRFSLPDDEWKTKEEKTDFQTVKLSAEFMEREQDNAYKVLADEDAPNFNLDKFYEKVFGNAYKNPDSGSDNKSSVDIGKTVLEHHHHHH | soluble
8 | MSLDRVYHEFGATLRQLYQQDTPIIALCAAGIVIRTLAPLLLEKGAEPPVLAVAEDGSAVVPLLGGLGGVNVMAREIAAGLGVAAAITTSGELRFGTCLLNPPSGYALGDLELGKRFVSDLLGGESVRIEGAAPWLAAAKLPENDQARLTIRVGSAEREPVANELLIYPRSVLVACRGQRLAGEADSDLATHIRQALHQARIAVQSVACLLAADRDMADRALHQAAAQLGVPLRFLPAADSVAELAQQAVPQLLPPLKVGEDIAIAVASQPLDPEQIGRPREGHHHHHH | not soluble
9 | MDMPHSTTHDASPAPCQRCGMAGATCCTIDPTDASLCFPVSRSEWERIVDHCDKRGGFATEPNTRPFVDNLIRLFPGEAREIERLFPPHGFHLRLAVDAKGNCAFLGPEGCTLPREVRPWYCLVFPFWLQGGRIAIFTPSGCVAVREGRTVPGCLALMNFTARDVRRLAGRLRLAWGLPPLDENGETLLEHHHHHH | not soluble
10 | MGSDKIHHHHHHMAAIGSYNITLLNRESIKENAAYPIADNVEVIALSGSLFEFYKKLKKQISSNNYDVVVVHNMGKLSLLCAFVPNIKKLVVLEHVSFISRPKKIQILSKFLYRNIDQVVTLTQNDKEQFDKFHSNVIVIPNFSPFSIASQPQNNGKQIVTIGRLTDQKNYIHLLQAWKKIYQSIPDWQLNIYGEGEQEEMLQDYIKQQSLKNVSLKGSTSNVKEVYEQSSFFVMSSKYEGLPMVLIEAQSFGLPIVSYNCPYGPSDVIRDSKNGFLVEDQNVDELAAAVLKVALSPQLLEQFSQSSLLNAKKYQPEQILKIWIEKVLEG | not soluble
11 | MGSDKIHHHHHHMKQGSLFENSQRNTPLASRVRPQTLDQFVGQAHLLGPGKILRELIENDQVSSMIFWGPPGVGKTTLAEIIARQTQATFLSFSAVDSSISKIKKIMHQAEADREIGEQTIVFVDEIHRFNKAQQDAFLPYVERGSIILIGATTENPSFEVNSALLSRCKVFVLKALATADIDQLLRNALTNPAGFSGRVTIGDAELRAIAEFANGDARMALNTLEMAVLNGDKQGDQVTVTQADLKQLITQKFVLYDKTGEEHYNIISALHKSMRNSDPDAAIYWLTRMLSGGEDPLYVARRLVRFASEDIGLADTNALNVAINVFQACQFLGMPECNVHLVEAVTYLSLAPKSNAIYKASQAAQKDVQQTRDEPVPLQLRNAPTKLMKDLGYGADYQYAHESAAKLTTMQTLPEALRGHVYYEPTEQGREGRFKARLAEIKRWQQQHRD | not soluble
12 | MTLTRKTLFLLTAAFGTHSLQTASADAVVKAEKLHASANRSYKVAGKRYTPKNQVAEFTQTGNASWYGGRFHGRKTSGGERYDMNAFTAAHKTLPIPSYVRVTNTKNGKSVIVRVNDRGPFHGNRIIDVSKAAAQKLGFVNQGTAHVKIEQIVPGQSAPVAENKDIFIDLKSFGTEHEAQAYLNQAAQNFAVSSSGTNLSVEKRRYEYVVKMGPFTSQERAAEAEAQARGMVRAVLTAG | not soluble
13 | GPGSMFTPSTRFLCSARPLLWFGRRGVFAAPHPEKAKTGGEDAFVVHTSGIGVADGVGGYASYGVDPGVYTRNVMKHTLRALQEDDNRGTIGALQALTYGYTEAQKLKQPGGCPVTLVTLLDGRFASVLNLGDCGTICLRSSKLFFATEPQQHSFNCPYQLPEDPPSVGDRTTLEVSEGDVFLCASDGLLDNVDMSDILRHLDAVNRDGCQRVAENLVACACRNGANKGFDSPFAKQARAVGYHYMGGKQDDVTVVVAQLTRGTVAPDDCPSLITELLDVHKT | not soluble
14 | EPEEVIPSRLDIRVGKIITVEKHPDADSLYVEKIDVGEAEPRTVVSGLVQFVPKEELQDRLVVVLCNLKPQKMRGVESQGMLLCASIEGINRQVEPLDPPAGSAPGEHVFVKGYEKGQPDEELKPKKKVFEKLQADFKISEECIAQWKQTNFMTKLGSISCKSLKGGNISLE | soluble
15 | MENKSPMKGSEAENAKDQLKKKTAEEFAQMAIINRAFSAESTEDPPPLAQKRSESTLKPLNDELKSVPLVRAFNSAENQLDPKNQNAAKK | not soluble
16 | MIAASDLKAGMTFEQDGKLIKVMEASHHKPGKGNTVMRMKLKDVRTGSTTDTTMRPDEKVKKAHIDTKPVQYLYSQDDMAIFMDLETYEQYEVPTALIEEELKYLLENMEVKIQFYGEEVIGLTLPTTVILRVAETQPSIKGATVTGSGKPATMETGLVVNVPDFVEADELLEINTAEGTYLKRAK | not soluble
17 | MGSDKIHHHHHHVGFLDGLMGGKQAPLVGLDISSSSVKLVELGQSASGQYVLERFATESFERGWIADGQIEKFDEVADAVRRVVSKSGTRSKRVAMAMPQSAVITKKIMLPAGLRDEELELQVESEANQYIPFSLDEVSLDFCVVGPSPSSVGDVEVLIAASRKDRVQDRQGLAEAAGLKPVVLDIESHASRLAMMRIVSALPNEGRDALVALFEIGAETTSLKVLRDEELLYDRDQAFGGSQLTQMISRQYGFSFEEAEQKKLASDLPEDYESSLLVPFVDSLAQEIGRALQYFFTSTPHHKVHYVMLGGGTATLPGLKERVTELTGFASMVVNPFEGMRLGSAVRESKLRREAPAYLTACGLAMRRFL | not soluble
18 | SLVLMSETKNELEDLLEKAATEPAHRPAFFRTLLESTVWVPGTAAQGEAVVEDSALDLQHWEKEDGTSVIPFFTSLEALQQVVEDEQAFVVMPVRTLFEMTLGETLFLNAKLPTGKEFMPREISLLIGEEGNSLSSQEVLEGGESLILSEVAEPPVQMIDSLTTLFKTIKPVKRAFICLIKESEEAQPNLLIGIEADGDIEEIIQAAGSVATDTLPGDEPIDICQVKKGEKGISHFITEHIAPFYERRWGGFLRDFKQNRII | soluble
19 | SGWVWNQFFVLEEYTGTDPLYVGKLHSDMDRGDGSIKYILSGEGAGIVFTIDDTTGDIHAIQRLDREERSQYTLRAQALDRRTGRPMEPESEFIIKIQD | soluble
20 | MKEQKISPISVLDQSPMFVSGVMQRMYRNRAQAELCRQNQMTLEMASALAALEEFQPMSQQALADAVLTERSVAKRMVDNLEKRGFVCVSKSEANQRLKMLSLTKEGEATIKKVHQIMRNLQREFFSCLSEDESAEFFRLVRKMTLANNS | not soluble
21 | MSLKLDSKGPVLFKQKRVGINKTHFHILKFRTMRIDTPKDTPTHLLKNPDQYITKMGKFLRKTSLDELPQIWNIFVGHMSIIGPRPALWNQYDLIVERDKYGANDVPPGLTGWAQINGRDELPIEVKAKLDGEYVQNIGFWMDVKCFVGTIWSVLRSDGVVEGGTGSAKKEIASTKRREGHHHHHH | soluble
22 | AHHHHHHASAKWVCKICGYIYDEDAGDPDNGISPGTKFEELPDDWVCPICGAPKSEFEKLEDGSRFIDANVFIYAILKPKRELNEKELKIKRVSKEIFNRINGGEEVVTTVVHLSEVANVLEDAANLSFAISFLKDVLIKGNVIVEEVSDRDYMESVLLAEEKGVSINDALAYILMKRKGIEEIYTFDRHFENLDVRIVNS | soluble
23 | MGHHHHHHSHMGYIYIVSFGDVEDRLLLADASNVKEIFDLEVRVSTVKADIEEAYNPQRNQYHAGTILSYLSRVVYPDMVRLVALVSFDLYEEGLNFVFGEAQYGGKYAVVSTYRLYHPDERVFFERVFKETNHELGHTFGLKHCPDPYCVMSFSNSIDEVDRKSRDFCPNCRRKLDYVLSYYR | not soluble
